Drawing on PMC4468156, “Essential Role for an M17 Leucine Aminopeptidase in Encystation of Acanthamoeba castellanii” (PLoS ONE, 2015), this text covers activity and Km for 2 molecules.

Data set [1] has as its target T1, AcLAPr (recombinant AcLAP, M17 leucine aminopeptidase) (Acanthamoeba castellanii, UniProt A0A060A630).
T1 construct: gene LAP; pCold TF vector, E. coli BL21 (pKJE7), Ni-NTA; N-terminal His6-trigger factor tag removed with thrombin
T1 sequence (A0A060A630 1-579): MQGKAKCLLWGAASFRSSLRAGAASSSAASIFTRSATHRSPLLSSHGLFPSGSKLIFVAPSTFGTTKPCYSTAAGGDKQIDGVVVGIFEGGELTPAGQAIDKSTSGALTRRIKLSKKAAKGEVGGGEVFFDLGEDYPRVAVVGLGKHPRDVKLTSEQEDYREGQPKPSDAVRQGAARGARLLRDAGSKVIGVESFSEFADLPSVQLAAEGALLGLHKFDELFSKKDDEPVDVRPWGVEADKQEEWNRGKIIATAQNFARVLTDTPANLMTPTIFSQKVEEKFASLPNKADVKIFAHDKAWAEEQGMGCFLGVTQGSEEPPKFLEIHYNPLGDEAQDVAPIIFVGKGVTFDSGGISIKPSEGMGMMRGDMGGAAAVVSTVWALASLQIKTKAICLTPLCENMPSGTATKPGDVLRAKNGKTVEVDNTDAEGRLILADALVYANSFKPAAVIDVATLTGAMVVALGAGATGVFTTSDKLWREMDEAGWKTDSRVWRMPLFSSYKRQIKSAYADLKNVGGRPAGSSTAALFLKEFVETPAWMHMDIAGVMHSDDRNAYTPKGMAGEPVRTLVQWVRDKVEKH
Description: inhibition of Leu-AMC hydrolysis, fluorometric. In kind it is biochemical. The text has this:
inhibition of Leu-AMC hydrolysis, fluorometric on AcLAPr (recombinant AcLAP, M17 leucine aminopeptidase)

Substrate in data set [2]: CSCC[C@H](N)C(=O)Nc1ccc2c(C)cc(=O)oc2c1
As to the kind of experiment: purified protein. The class given is biochemical, Acanthamoeba castellanii. The conditions noted are these: 50 mM Tris-HCl, 1 mM MnCl2, pH 8.0, 37°C, 25 nM enzyme.

Substrate in data set [3]: Cc1cc(=O)oc2cc(NC(=O)[C@@H](N)CC(C)C)ccc12
As to the kind of experiment: purified protein. The conditions noted are these: 50 mM Tris-HCl, 1 mM MnCl2, pH 8.0, 37°C, 25 nM enzyme. In kind it is biochemical, Acanthamoeba castellanii.

Substrate in data set [4]: Cc1cc(=O)oc2cc(NC(=O)[C@@H](N)CCCNC(=N)N)ccc12
Description: purified protein. The class given is biochemical, Acanthamoeba castellanii. The conditions noted are these: 50 mM Tris-HCl, 1 mM MnCl2, pH 8.0, 37°C, 25 nM enzyme.

Take `CC(C)C[C@H](NC(=O)[C@@H](O)[C@H](N)Cc1ccccc1)C(=O)O` [bestatin]: the activity at 10 µM in data set [1] came to 22.5 ± 1.13%.

B1: AcLAPr (recombinant AcLAP, M17 leucine aminopeptidase) (Acanthamoeba castellanii) (protein)
chain: MQGKAKCLLWGAASFRSSLRAGAASSSAASIFTRSATHRSPLLSSHGLFPSGSKLIFVAPSTFGTTKPCYSTAAGGDKQIDGVVVGIFEGGELTPAGQAIDKSTSGALTRRIKLSKKAAKGEVGGGEVFFDLGEDYPRVAVVGLGKHPRDVKLTSEQEDYREGQPKPSDAVRQGAARGARLLRDAGSKVIGVESFSEFADLPSVQLAAEGALLGLHKFDELFSKKDDEPVDVRPWGVEADKQEEWNRGKIIATAQNFARVLTDTPANLMTPTIFSQKVEEKFASLPNKADVKIFAHDKAWAEEQGMGCFLGVTQGSEEPPKFLEIHYNPLGDEAQDVAPIIFVGKGVTFDSGGISIKPSEGMGMMRGDMGGAAAVVSTVWALASLQIKTKAICLTPLCENMPSGTATKPGDVLRAKNGKTVEVDNTDAEGRLILADALVYANSFKPAAVIDVATLTGAMVVALGAGATGVFTTSDKLWREMDEAGWKTDSRVWRMPLFSSYKRQIKSAYADLKNVGGRPAGSSTAALFLKEFVETPAWMHMDIAGVMHSDDRNAYTPKGMAGEPVRTLVQWVRDKVEKH
notes: pCold TF vector, E. coli BL21 (pKJE7), Ni-NTA; N-terminal His6-trigger factor tag removed with thrombin
Broadly, the Km is the substrate concentration at which the rate is half of its maximum. With B1, the Km stood at 3.77 ± 0.46 µM in the data set “purified protein [2]”, 13.51 ± 1.31 µM in “purified protein [3]” and 41.37 ± 0.05 µM in the data set “purified protein [4]”.
